To fix the notation:
B1: SEQ ID NO:17-8 (23F25) (mixed)
RNA: GGAGGUGCUCCGAAAGGAACUCCAAAAAAAAAAAAAAAA
modifications: 2'-OMe G1 G2 G12-A15 C22 C23; 2'-F U6 C8 U9 C10 C11 C20 U21; deoxy A16 tail; rest 2'-OH
B2: SEQ ID NO:17-11 (23F41) (mixed)
RNA: GGAGGUGCUCCGAAAGGAACUCCAAAAAAAAAAAAAAAA
modifications: as 17-8 with 2'-OMe U9
B3: SEQ ID NO:17-12 (23F42) (mixed)
RNA: GGAGGUGCUCCGAAAGGAACUCCAAAAAAAAAAAAAAAA
modifications: as 17-8 with 2'-OMe C10
B4: SEQ ID NO:17-10 (23F33) (mixed)
RNA: GGAGGUGCUCCGAAAGGAACUCCAAAAAAAAAAAAAAAA
modifications: as 17-7 with 2'-OMe G17
B5: SEQ ID NO:15-3 (30F-3) (mixed)
RNA: GGAGGUGCUCCGCGAGCCACGCGGAACUCC
modifications: deoxy G1 G2 C11 C13 A15-A19 C20 C22 C29 C30; 2'-F U6 C8 U9 C10 C27 U28; rest 2'-OH
B6: SEQ ID NO:15-4 (30F-4) (mixed)
RNA: GGAGGUGCUCCGCGGAAACGCGGAACUCC
modifications: deoxy G1 G2 C13 G15 A16 A17 A18 C19 C21 C28 C29; 2'-F U6 C8 U9 C10 C11 C26 U27; rest 2'-OH
B7: SEQ ID NO:23 (ssRNA)
RNA: GGGUACGAGUCUGGACUUGCAACCUAAUGCGGUGCUCCUCUGGAACCAUUAGCUGUUGCAAAUGAGGCUCACAACAGGC
modifications: 2'-F at all pyrimidines
B8: SEQ ID NO:19 (ssRNA)
RNA: GGGUACGAGUCUGGACUUGCAACAAGGUGCUCCACCUACCUAGUGGAACUUGCUGAUGAGGCUCACAACAGGC
modifications: 2'-F at all pyrimidines
B9: SEQ ID NO:17 C8U (ssRNA)
RNA: GGAGGUGUUCCGAAAGGAACUCC
modifications: 2'-F at all pyrimidines [2'-F pyrimidines at 6,8,9,10,11,20,21,22,23]
B10: SEQ ID NO:21 (ssRNA)
RNA: GGGUACGAGUCUGGACUUGCAACGGAUACAGGUGCUCCGAUCUUCGGAACUGGCGUUGGCGGUGAGGCUCACAACAGGC
modifications: 2'-F at all pyrimidines
B11: SEQ ID NO:22 (ssRNA)
RNA: GGGUACGAGUCUGGACUUGCAAUACGAGGUGCUCCAAGGAAUCGCCCUGGAACUCGACGACGUGAGGCUCACAACAGGC
modifications: 2'-F at all pyrimidines
B12: SEQ ID NO:20 (ssRNA)
RNA: GGGUACGAGUCUGGACUUGCAAGGUGCUCCGUUAGCAUUGCGGAACUUGCAAUAUAUCCUAUUGAGGCUCACAACAGGC
modifications: 2'-F at all pyrimidines
B13: SEQ ID NO:12 (ssRNA)
RNA: GGACAGGUGCUCCAUCAACAAAAUGUUACAUGGAACUGUCC
modifications: 2'-F at all pyrimidines
B14: SEQ ID NO:13 (ssRNA)
RNA: GGACAGGUGCUCUGCGAGCCACGCGGAACUGUCC
modifications: 2'-F at all pyrimidines
B15: SEQ ID NO:18 (ssRNA)
RNA: GGAGGUGCUCGAAAGAACUCC
modifications: 2'-F at all pyrimidines

T1 sequence (P01857 other isoform, or with tags, fused parts or gaps): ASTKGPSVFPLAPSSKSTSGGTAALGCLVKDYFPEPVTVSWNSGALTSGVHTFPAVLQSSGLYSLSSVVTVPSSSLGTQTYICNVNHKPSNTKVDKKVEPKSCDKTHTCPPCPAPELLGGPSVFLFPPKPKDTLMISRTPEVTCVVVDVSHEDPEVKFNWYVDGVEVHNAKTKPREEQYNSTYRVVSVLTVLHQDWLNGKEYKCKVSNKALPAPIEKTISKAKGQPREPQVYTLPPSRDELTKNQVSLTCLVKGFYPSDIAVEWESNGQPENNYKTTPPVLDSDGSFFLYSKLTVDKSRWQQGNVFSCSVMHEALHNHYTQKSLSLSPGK

One data set has as its target T1, IgG1 (human, UniProt P01857-1 P01857-1:1-330). The data set can be described thus: SPR; parent SEQ 17 ++. The following applies: tags: Calbiochem; chain copies: 2. The procedure: Used for the measurements was BIAcore 2000 manufactured by BIAcore. Used as the sensor chip was the SA chip having streptavidin immobilized thereon. Bound thereto was about 1000 RU of 16-residue Poly dT having biotin bound to the 5′ end thereof. The RNA for use as the ligand had 16-residue Poly A added to the 3′ end thereof, and immobilized to the SA chip via a bond between dT and A. The amount immobilized was adjusted to about 1000 RU by injecting 60 μL at a concentration of 0.01 μg/μL. 70 μL of IgG-Fc for analyte (manufactured by Athens Research & Technology), adjusted to 0.6 μM, was injected. The running buffer used had the same components as those of the solution A used in SELEX.
The RNAs were prepared by chemical synthesis (manufactured by Gene Design). Their binding affinities were measured by a surface plasmon resonance method as in Example 1. Used as the IgG was human IgG1 (manufactured by Calbiochem).
Take B1: the binding result is “binds”.
Take B2: the binding result is “binds”.
B3: the binding result is “binds”.
Take B4: the binding result is “binds”.

The next data set addresses T1, IgG1. The data set can be described thus: SPR; parent SEQ 15 ++++. As to conditions: tags: Calbiochem; chain copies: 2.
Turning to B5, the binding result was “binds”.
As for B6, the binding result is “binds”.

The next data set addresses T1, IgG1. The data set can be described thus: SPR. As to conditions: tags: Calbiochem; chain copies: 2.
B7: the binding result is “binds”.
With B8, the binding result is “binds”.
Still for that read-out and setting: the same measure for B9: “no binding”.

The same data set, now with this note: tags: Calbiochem; chain copies: 2; GGUGCU bulge.
Turning to B10, the binding result is reported as “binds”.
Still for that read-out and setting: the same measure for B11: “binds”; for B12: “binds”.

Staying with this data set, now noted: tags: Calbiochem; chain copies: 2; label: 3' A16 tail for immobilisation.
Take B13: the binding result is on record as “binds”.
Same read-out and setting: the same measure for B14: “binds”; for B15: “binds”.

Source of the values: US20090170219, “Nucleic acid capable of binding to immunoglobulin G and use thereof” (published 2009).
